Data set [1] deals with ΔNPNTD (NP 25-457) (Zaire ebolavirus (EBOV)). As to the kind of experiment: filter binding.
The data set “SEC” concerns the molecule itself. As to the kind of experiment: SEC. In general terms: Size exclusion chromatography separates by hydrodynamic size, large species first.

20 nt ssRNA: the Kd in data set [1] was determined as 620 nM.

B1: EBOV NP residues 1–457 (NPNTD) (domain or fragment)
chain: MDSRPQKIWMAPSLTESDMDYHKILTAGLSVQQGIVRQRVIPVYQVNNLEEICQLIIQAFEAGVDFQESADSFLLMLCLHHAYQGDYKLFLESGAVKYLEGHGFRFEVKKRDGVKRLEELLPAVSSGKNIKRTLAAMPEEETTEANAGQFLSFASLFLPKLVVGEKACLEKVQRQIQVHAEQGLIQYPTAWQSVGHMMVIFRLMRTNFLIKFLLIHQGMHMVAGHDANDAVISNSVAQARFSGLLIVKTVLDHILQKTERGVRLHPLARTAKVKNEVNSFKAALSSLAKHGEYAPFARLLNLSGVNNLEHGLFPQLSAIALGVATAHGSTLAGVNVGEQYQQLREAATEAEKQLQQYAESRELDHLGLDDQEKKILMNFHQKKNEISFQQTNAMVTLRKERLAKLTEAITAASLPKTSGHYDDDDDIPFPGPINDDDNPGHQDDDPTDSQDTTIPDV
In the case of B1, the binding result in the data set “SEC” is recorded as “binds”.

As a reminder, the Kd is a measure of binding affinity in units of concentration. A low value points to a tighter complex.

For the origin of these results see article PMC4599368 (Cell reports, 2015).
